Measurements published in IntAct's records for PubMed 21368759.

B1: Adapter protein MecA 1 (Bacillus subtilis), P37958 (parent)
chain: MEIERINEHTVKFYMSYGDIEDRGFDREEIWYNRERSEELFWEVMDEVHEEEEFAVEGPLWIQVQALDKGLEIIVTKAQLSKDGQKLELPIPEDKKQEPASEDLDALLDDFQKEEQAVNQEEKEQKLQFVLRFGDFEDVISLSKLNVNGSKTTLYSFENRYYLYVDFCNMTDEEVENQLSILLEYATESSISIHRLEEYGKLIISEHALETIKKHFAS
partner: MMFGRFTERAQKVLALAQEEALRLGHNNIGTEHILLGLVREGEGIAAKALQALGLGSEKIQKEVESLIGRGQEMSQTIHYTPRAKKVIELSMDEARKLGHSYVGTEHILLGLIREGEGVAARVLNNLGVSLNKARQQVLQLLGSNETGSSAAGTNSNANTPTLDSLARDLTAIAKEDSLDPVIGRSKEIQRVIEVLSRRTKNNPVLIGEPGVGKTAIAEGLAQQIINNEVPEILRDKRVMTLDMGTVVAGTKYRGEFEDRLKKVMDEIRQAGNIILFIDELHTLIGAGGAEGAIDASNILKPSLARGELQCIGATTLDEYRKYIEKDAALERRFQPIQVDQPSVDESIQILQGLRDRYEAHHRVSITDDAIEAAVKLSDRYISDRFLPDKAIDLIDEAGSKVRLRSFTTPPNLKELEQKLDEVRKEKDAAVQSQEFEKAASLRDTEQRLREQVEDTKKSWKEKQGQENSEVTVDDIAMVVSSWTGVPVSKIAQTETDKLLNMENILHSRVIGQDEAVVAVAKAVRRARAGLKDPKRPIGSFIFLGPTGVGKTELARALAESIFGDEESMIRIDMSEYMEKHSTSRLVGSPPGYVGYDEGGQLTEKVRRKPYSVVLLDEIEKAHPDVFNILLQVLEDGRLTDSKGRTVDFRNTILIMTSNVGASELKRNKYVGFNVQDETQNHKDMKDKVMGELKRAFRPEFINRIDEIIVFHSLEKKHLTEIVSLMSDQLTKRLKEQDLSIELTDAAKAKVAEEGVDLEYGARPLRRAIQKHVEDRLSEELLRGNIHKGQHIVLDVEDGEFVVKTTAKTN

Variants of: B1
Conditions: with clpc_bacsu clpC

Variant | effect of a mutation on the interaction
MEIERINEHTVKFYMSYGDIEDRGFDREEIWYNRERSEELFWEVMDEVHEEEEFAVEGPLWIQVQALDKGLEIIVTKAQLSKDGQKLELPIPEDKKQEPASEDLDALLDDFQKEEQAVNQEEKEQKLQFVLRFGDFEDVISLSKLNVNGSKTTLYSFENRYYLYVDFCNMTDEEVENQLSILLRYATESSISIHRLEEYGKLIISEHALETIKKHFAS [E184R] | disrupting interaction
